Results published in article PMC8092299, “Bifunctional Malic/Malolactic Enzyme Provides a Novel Mechanism for NADPH-Balancing in Bacillus subtilis” (mBio, 2021).

T1: MaeB (Escherichia coli, UniProt P76558)
T1 construct: His-tagged from ASKA His tag collection library, overexpressed in E. coli, Ni-NTA purified, tag kept
T1 sequence (P76558 1-759): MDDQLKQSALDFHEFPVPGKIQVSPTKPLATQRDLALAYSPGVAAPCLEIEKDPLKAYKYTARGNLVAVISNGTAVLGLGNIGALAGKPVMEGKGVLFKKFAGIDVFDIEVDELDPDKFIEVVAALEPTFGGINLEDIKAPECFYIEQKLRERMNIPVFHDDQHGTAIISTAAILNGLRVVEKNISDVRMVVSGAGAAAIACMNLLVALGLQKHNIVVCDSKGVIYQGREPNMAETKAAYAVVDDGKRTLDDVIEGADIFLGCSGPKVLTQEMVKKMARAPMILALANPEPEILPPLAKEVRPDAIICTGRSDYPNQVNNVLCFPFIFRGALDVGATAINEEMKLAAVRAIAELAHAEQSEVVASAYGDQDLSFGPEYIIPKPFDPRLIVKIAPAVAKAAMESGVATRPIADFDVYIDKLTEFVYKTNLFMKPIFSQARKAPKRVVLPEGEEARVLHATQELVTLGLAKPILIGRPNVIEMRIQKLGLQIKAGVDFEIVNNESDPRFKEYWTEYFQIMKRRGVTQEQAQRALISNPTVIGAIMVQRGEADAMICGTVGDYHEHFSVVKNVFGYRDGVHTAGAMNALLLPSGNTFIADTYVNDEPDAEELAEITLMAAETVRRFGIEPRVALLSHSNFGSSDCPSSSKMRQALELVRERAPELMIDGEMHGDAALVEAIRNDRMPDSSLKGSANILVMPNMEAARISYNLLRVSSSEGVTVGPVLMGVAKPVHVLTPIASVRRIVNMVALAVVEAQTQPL

B1: YtsJ (Bacillus subtilis subsp. subtilis str. 168) (protein)
chain: MSLREEALHLHKVNQGKLESKSKVEVRNAKDLSLAYSPGVAEPCKDIHEDINKVYDYTMKGNMVAVVTDGTAVLGLGNIGPEAALPVMEGKAVLFKSFAGVDAFPIALNTNDVDKIVETVKLLEPTFGGVNLEDIAAPNCFIIEERLKKETNIPVFHDDQHGTAIVTVAGLVNALKLSGKSMSSIKVVANGAGAAGIAIIKLLHHYGVRDIVMCDSKGAIYEGRPNGMNDVKNEVAKFTNQDRKDGSLKDVIVDADVFIGVSVAGALTKEMVQSMAKDPIIFAMANPNPEIMPEDAREAGASVVGTGRSDFPNQVNNVLAFPGIFRGALDVRATHINEEMKIAAVEAIASLVSEDELSADYVIPAPFDKRVAPAVAKAVAKAAMETGVARITVDPEEVAEKTRKLTIIGE
notes: His6-tagged, overexpressed in E. coli (QIAexpress), Ni-NTA purified, tag kept

What was measured:
MaeB = molecular target: T1, MaeB; experiment: flow-injection TOF MS, lactate formation (malolactic activity); format: biochemical; details: NAD+, malate, pyruvate and 1 mM NADPH; 10 mM potassium phosphate pH 7.4, 2.5 mM MgCl2, 50 mM KCl, 1 mM NaHCO3, room temperature
purified protein [1] = substrate: NC(=O)C1=CN([C@@H]2O[C@H](COP(=O)(O)OP(=O)(O)OC[C@H]3O[C@@H](n4cnc5c(N)ncnc54)[C@H](OP(=O)(O)O)[C@@H]3O)[C@@H](O)[C@H]2O)C=CC1; experiment: purified protein; format: biochemical, Bacillus subtilis; details: reductive carboxylation, 20 mM pyruvate, 50 mM NaHCO3, 5 mM MgCl2, 50 mM KCl, 100 mM Tris-HCl pH 7.8, 37°C, varied: cofactor
purified protein [2] = substrate: CC(=O)C(=O)O; experiment: purified protein; format: biochemical, Bacillus subtilis; details: reductive carboxylation, NADH and NADPH both added at 0.2 mM, 50 mM NaHCO3, 5 mM MgCl2, 50 mM KCl, 100 mM Tris-HCl pH 7.8, 37°C

Molecule | flow-injection TOF MS, lactate formation (malolactic activity) (MaeB) | Km (purified protein [1]) | Km (purified protein [2])
O=C(O)C[C@H](O)C(=O)O [malate] | we observed lactate production and, thus, malolactic activity by MaeB |  | 
B1 |  | 0.8 ± 0.5 mM | 5.3 ± 1.3 mM
